Source: patent US20050272636A1, “Treatment and diagnosis of a reproductive disorder by measuring or inhibiting interferon-gamma” (Adelaide Research & Innovation Pty Ltd., priority 2002, published 2005)

Key:
[1] = test system: human cervical epithelial cells; test: Effect of IFN-γ and TGFβ on GM-CSF synthesis in human cervical epithelial cells (Example 4); type: cell-based; conditions: 5.0 ng/ml recombinant human IFN-γ; 12 h; ELISA
Protocol: Human cervical epithelial cells were cultured using a modification of the technique described by Rheinwald et al., Cell 1975 3: 33143 (1975). Cervical biopsies were obtained from consenting women undergoing hysterectomy for non-malignant gynaecological indications. All the women were pre-menopausal, but no distinction was made regarding the stage of their menstrual cycle at the time of surgery. The cervical biopsies were placed in ice-cold Hank's balanced salt solution for transport to the laboratory, washed twice in antibiotic-containing medium, and incubated overnight at 4° C. in Dulbecco's modified Eagle's medium (DMEM) containing 5 U dispase (Boehringer Mannheim). Large sheets of keratinocytes were mechanically stripped from the biopsy using sterile forceps after a subsequent 1 h incubation at room temperature. Disaggregation into single cells was facilitated by incubation in DMEM/0.25% trypsin/0.05% collagenase for 30 minutes at 37° C., and repeated aspiration using a needle and syringe. […]
Supernatant was collected 12 hours later and assayed for GM-CSF activity using a commercial human GM-CSF specific ELISA (R & D Systems) according to the manufacturer's instructions. The GM-CSF content of post-treatment supernatants were normalised to the GM-CSF content of corresponding 12 h (baseline) supernatants and expressed as a percentage of control values.

[2] = target: T1, IFNγ (Mus musculus, UniProt P01580); test: Penicillin inhibition of the IFNγ effect on GM-CSF production in uterine epithelial cells (Example 2); type: cell-based; conditions: DMEM +penicillin versus DMEM -penicillin
T1 construct: purchased R&D Systems, UK
T1 sequence (P01580 23-155): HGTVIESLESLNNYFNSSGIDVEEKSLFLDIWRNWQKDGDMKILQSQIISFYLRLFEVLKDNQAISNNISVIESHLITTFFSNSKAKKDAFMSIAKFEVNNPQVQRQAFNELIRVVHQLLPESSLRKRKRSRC
Protocol: Uterine Epithelial Cell Cultures. Uterine epithelial cells prepared as previously described (Robertson et al., Biol Reprod 46:1069-1079 (1992)) were pooled from 4-6 estrous C57B1/6 or C57B1/6×Balb/c F1 mice and plated in 1 ml culture wells (Nunc, Roskilde, Germany) at 1-2×10^5 cells per ml in 500 μl of Dulbecco's modified Eagles medium containing 10% FCS, […] streptomycin sulphate and […] benzyl penicillin (DMEM +penicillin). After 4 h incubation at 37° C. in 5% CO2 to allow cell adherence, a further 500 μl of DMEM +penicillin, or DMEM +penicillin plus recombinant mouse IFNγ (rIFNγ) and/or recombinant human TGFβ1 (rTGFβ), were added. In some experiments, penicillin-free DMEM (DMEM −penicillin) was used throughout. Culture supernatants were collected and replaced with fresh medium at 16 hours, then collected again 24 hours later, at which time GM-CSF content was determined and adherent cells were quantified as previously described (Robertson et al., Biol Reprod 46:1069-1079 (1992)). […]
GM-CSF bioassay: GM-CSF was assayed using the GM-CSF dependant cell line FD 5/12, essentially as previously described (Robertson et al., Biol Reprod 46:1069-1079 (1992)). Cell proliferation was determined by pulsing with 1 μCi of [^3H]-thymidine per well for the last 6 h of the assay. […] GM-CSF production is expressed as ng GM-CSF/10^5 cells/24 h. […]

[3] = test system: IFNγ; test: Inhibitors and antagonists counteracting the GM-CSF-inhibiting actions of IFNγ in uterine epithelial cells (Example 3); type: cell-based, mouse; conditions: for effect of TGFβ isoform on the inhibitory effect of IFNγ on GM-CSF synthesis: added in combination with IFNγ, dose-responsive, 5 ng/ml greater effect than 0.5 ng/ml
Protocol: Several inhibitors and antagonists of IFNγ were tested for their ability to counteract the GM-CSF-inhibiting actions of IFNγ in epithelial cells.
Uterine Epithelial Cell Cultures. Uterine epithelial cells prepared by pancreatin-trypsin digest as previously described (Robertson et al., (1992) Biol. Reprod. 46:1069-1079) were pooled from 4-6 estrous adult C57B1/6×CBA F1 female mice and plated in 1 ml culture wells (Nunc, Roskilde, Germany) at 1-2×10^5 cells per ml in 500 μl of RPMI containing 10% FCS and streptomycin (RPMI-FCS). Penicillin was omitted from culture media except where specified. After 4 h incubation at 37° C. in 5% CO2 to allow cell adherence, a further 500 μl of cytokines or antibodies in RPMI-FCS, or RPMI-FCS alone, were added. Cytokine treatments included recombinant mouse interferon-γ (rmIFNγ; R&D Systems), recombinant human transforming growth factor β1 (rhTGFβ1, R&D Systems), rhTGFβ2 (R&D Systems), rhTGFβ3 (OSI Pharmaceuticals). Antibody treatments included goat anti-mouse IFNγ receptor 1 (αIFNγR; R&D Systems AF1026) and hamster anti-mouse IFNγ (αIFNγ; R&D Systems MAB4851). Culture supernatants were collected and replaced with fresh complete RPMI-FCS alone at 16 hours, then collected again 24 hours later, at which time adherent cells were quantified as previously described (Robertson et al., (1992) Biol. Reprod. 46:1069-1079). The GM-CSF content of 24 h supernatants was determined by GM-CSF bioassay or immunoassay. All treatments were performed in duplicate or triplicate.
GM-CSF bioassay and immunoassay: Bioactive GM-CSF was assayed using the GM-CSF dependant cell line FD 5/12, essentially as previously described (Robertson et al., (1992) Biol. Reprod. 46:1069-1079). Cell proliferation was determined by the addition of 1 μCi of [^3H]-thymidine per well for the last 6 h of the assay. The minimal detectable amount of GM-CSF was […] The identity of the bioactivity in uterine epithelial cell cultures was confirmed using a goat polyclonal antibody to murine GM-CSF kindly provided by J. Schreurs (DNAX, Palo Alto, Calif.) as previously described (Robertson et al., (1992) Biol. Reprod. 46:1069-1079). GM-CSF immunoactivity was in some experiments measured by commercial mouse GM-CSF specific ELISA (R & D Systems) according to the manufacturer's instructions.

[4] = test system: mice; test: Effect of IFN-γ treatment on pregnancy outcome in mice (Example 8); type: in vivo; conditions: for effect on the detrimental effects of IFN-γ on pregnancy outcome: implantation rate, viable versus resorbing fetuses, fetal and placental weight on day 18
Protocol: Mice are housed under specific pathogen-free conditions at the University of Adelaide Medical School Animal House on a 12:12 light-dark cycle, and administered food and water ad libitum. Adult Balb/c×C57B1/6 F1 females (7-10 weeks old) are synchronised into estrus by caging in close proximity to males. Estrus is identified on the basis of presence of cornified epithelial cells in vaginal smears prepared at 0900-1000 h daily and examined by phase contrast microscopy. On the day of estrus (day 0) females are caged with proven fertile Balb/k males for natural mating. The day of sighting a vaginal plug is nominated day 1 of pregnancy.
Mice are randomly allocated to one of four groups and treated as follows: Group 1 (100 ng IFN-γ) mice receive three intraperitoneal injections of […] recombinant mouse IFN-γ (rmIFN-γ, R&D Systems) in 200 μl PBS containing 1% bovine serum albumin (PBS-BSA) at 1700 h on day 0, at 1000 h on day 1 and 1700hon day 1.
Group 2 (250 ng IFN-γ) receive three injections of 250 ng rmIFN-γ according to the same time schedule.
Group 3 (control) receive three injections of PBS-BSA instead of IFN-γ according to the same time schedule.
Group 4 (comparison) Mice are mated but otherwise remain untreated.
Twenty mice per group are used to ensure statistical significance in treatment effects.
Alternatively, a transcervical delivery route for IFN-γ is used. Treatments are delivered directly into the uterine lumen with the aid of a tom-cat catheter (Sovereign, St Louis Mo.). In mated animals this requires removal of vaginal plugs using forceps to allow transcervical access. Mice are randomly allocated to one of four groups and treated as follows: the first group (100 ng IFN-γ) mice receive three transcervical injections of […] recombinant mouse IFN-γ (rmIFN-γ, R&D Systems) in 200 μl PBS containing 1% bovine serum albumin (PBS-BSA) at 1700 h on day 0, at 1000 h on day 1 and 1700 h on day 1. The second group (25 ng IFN-γ) receive three injections of 25 ng rmIFN-γ according to the same time schedule. The third group (control) receive three injections of PBS-BSA instead of IFN-γ according to the same time schedule. For comparison, a fourth group of mice are mated but otherwise would remain untreated. Twenty mice per group are used to ensure statistical significance in treatment effects.
Pregnant females are sacrificed by cervical dislocation at 1000 h -1200 h on day 18 of gestation. The intact uterus of each female is removed and total, viable and resorbing implantation sites counted. Each viable fetus is dissected from the amniotic sac and umbilical cord, and fetuses and placentae weighed. Placental tissues are fixed in paraformaldehyde and processed for histological staining of paraffin sections, using Masson's trichrome stain.

IFN-γ: recombinant human IFN-γ (R & D Systems), used on human cervical epithelial cells in Example 4
effect of IFN-γ on GM-CSF synthesis [1]: inhibited GM-CSF synthesis

CC1(C)S[C@@H]2[C@H](NC(=O)Cc3ccccc3)C(=O)N2[C@H]1C(=O)O [penicillin, benzyl penicillin, reference compound]
ability of penicillin to inhibit the effect of IFNγ on GM-CSF production [2]: inhibit the effect of IFNγ
IFNγ concentration required to inhibit GM-CSF synthesis after addition of penicillin ([3]; penicillin at 60 μg/ml): ≥ 2.5 ng/mL
effect of penicillin on the GM-CSF inhibiting activity of IFNγ ([3]; penicillin at 60 μg/ml): antagonised the GM-CSF inhibiting activity of IFNγ

B1: rhTGFβ2: recombinant human TGFβ2 (R&D Systems) (protein, UniProt P61812 303-414, looked up)
Transforming growth factor …: ALDAAYCFRNVQDNCCLRPLYIDFKRDLGWKWIHEPKGYNANFCAGACPYLWSSDTQHSRVLSLYNTINPEASASPCCVSQDLEPLTILYYIGKTPKIEQLSNMIVKSCKCS
modifications: Transforming growth factor beta-2
effect of TGFβ isoform on the inhibitory effect of IFNγ on GM-CSF synthesis [3]: counteracted the inhibitory effect
effect on the detrimental effects of IFN-γ on pregnancy outcome [4]: reverses the detrimental effects of IFN-γ

B2: IFN-γ: recombinant human IFN-γ (R & D Systems), used on human cervical epithelial cells in Example 4 (protein, UniProt P01579 24-161, looked up)
Interferon gamma: QDPYVKEAENLKKYFNAGHSDVADNGTLFLGILKNWKEESDRKIMQSQIVSFYFKLFKNFKDDQSIQKSVETIKEDMNVKFFNSNKKKRDDFEKLTNYSVTDLNVQRKAIHELIQVMAELSPAAKTGKRKRSQMLFRG
effect of IFN-γ on pregnancy outcome ([4]; peritoneal cavity or uterine lumen, day of estrus and day 1, assessed day 18): impairs pregnancy outcome

B3: rhTGFβ3: recombinant human TGFβ3 (OSI Pharmaceuticals) (protein, UniProt P10600 301-412, looked up)
Transforming growth factor …: ALDTNYCFRNLEENCCVRPLYIDFRQDLGWKWVHEPKGYYANFCSGPCPYLRSADTTHSTVLGLYNTLNPEASASPCCVPQDLEPLTILYYVGRTPKVEQLSNMVVKSCKCS
modifications: Transforming growth factor beta-3
effect of TGFβ isoform on the inhibitory effect of IFNγ on GM-CSF synthesis [3]: counteracted the inhibitory effect
effect on the detrimental effects of IFN-γ on pregnancy outcome [4]: reverses the detrimental effects of IFN-γ
